From patent US20040259176A1, “Structural basis for the guanine nucleotide-binding activity of tissue transglutaminase and its regulation of transamidation activity” (priority 2003, published 2004)

Experiments:
Assay type in all cases: cell-based, human
[1] = tested on: tissue transglutaminase (TG); assay: TG transamidation assay (incorporation of 5-(biotin-amido) pentylamine) in SKBR3 cell extracts; conditions: SKBR3 cells, EGF compared with RA; FIG. 9A-B
Experimental: (§1) Cells were grown for 2 days in complete media and subsequently placed in low serum. The following day, cells were left untreated (0), treated with 5 μM RA (RA), 100 ng/ml EGF (EGF), or co-treated with 5 μM RA and 100 ng/ml EGF (RA/EGF) for 2 days and then lysed. In FIG. 9A, the cell extracts were used to determine TG GTP-binding activities (GTP-TGase) using an affinity-labeling assay with radioactive GTP as outlined in Example 11. Western blot analysis using TG and actin antibodies was performed to assess the expression levels of each of these proteins (TGase and actin). In FIG. 9B, the same cell lysates were assayed for TG transamidation activities as determined by the incorporation of 5-(biotin-amido) pentylamine into proteins as described in Example 12. The experiments were conducted in triplicate, quantitated, and the values from each experiment were averaged together and plotted. In FIG. 9C, SKBR3 cells were seeded at 1×10^5 cells/well and grown in low serum medium +/−5 μM RA and +/−100 ng/ml EGF for the times indicated and then counted. The results from three independent growth assays were averaged together and plotted.
TG transamidation assays were performed as previously described with slight modifications. 15 μg of whole cell extracts were incubated in a buffer containing 2 mM 5-(biotin-amido) pentylamine, 40 mM CaCl2, and 40 mM DTT for 20 minutes. […]

[2] = tested on: tissue transglutaminase (TG); assay: TG expression by Western blot in SKBR3 cells; conditions: 5 μM RA or 100 ng/ml EGF for 2 days, FIG. 9A
Experimental: Cells were grown for 2 days in complete media and subsequently placed in low serum. The following day, cells were left untreated (0), treated with 5 μM RA (RA), 100 ng/ml EGF (EGF), or co-treated with 5 μM RA and 100 ng/ml EGF (RA/EGF) for 2 days and then lysed. In FIG. 9A, the cell extracts were used to determine TG GTP-binding activities (GTP-TGase) using an affinity-labeling assay with radioactive GTP as outlined in Example 11. Western blot analysis using TG and actin antibodies was performed to assess the expression levels of each of these proteins (TGase and actin). In FIG. 9B, the same cell lysates were assayed for TG transamidation activities as determined by the incorporation of 5-(biotin-amido) pentylamine into proteins as described in Example 12. The experiments were conducted in triplicate, quantitated, and the values from each experiment were averaged together and plotted. In FIG. 9C, SKBR3 cells were seeded at 1×10^5 cells/well and grown in low serum medium +/−5 μM RA and +/−100 ng/ml EGF for the times indicated and then counted. The results from three independent growth assays were averaged together and plotted. […]
NIH3T3 cells were grown in Dulbecco's modified Eagle's medium containing 10% calf serum and 100 units/ml penicillin. […] Protein concentrations were determined using the Bio-Rad DC protein assay. […]

SKBR3 cells [3] = assay: Cell growth assay; conditions: low serum medium, 5 μM RA or 100 ng/ml EGF, up to 6 days; FIG. 9C
Experimental: as §1
Cells were seeded at 1×10^5 cells/well and grown in medium containing 0.5% serum +/−5 μM RA and +/−100 ng/ml EGF. Every 2 days the medium was changed. At 0, 2, 4, and 6 days of treatment, the cells were collected and counted.

[4] = tested on: tissue transglutaminase (TG); assay: TG expression and activation in MDAMB231 cells (Western blot, GTP-binding, transamidation); conditions: growth factor (EGF) stimulation, FIG. 9A-B
Experimental: as §1
Total cell lysates from each sample were combined with Laemmli sample buffer, boiled, and subjected to SDS-polyacrylamide gel electrophoresis (PAGE). […]

SKBR3 cells [5] = assay: Nuclear condensation or blebbing assay (doxorubicin-induced apoptosis); conditions: SKBR3 cells stimulated with EGF (100 ng/ml) for 2 days prior to doxorubicin; FIG. 11B
Experimental: FIGS. 1A-D illustrate that the protective effect of EGF from doxorubicin-induced apoptosis is blocked by MDC in SKBR3 cells. In FIG. 11A, nearly confluent cultures of SKBR3 and MDAMB231 cells were placed in low serum medium. The following day, the cells were exposed to low serum medium +/−0.25 μM doxorubicin (Dox) for the times indicated and subsequently lysed. The presence of the activated form of caspase 3 (cleaved caspase 3) and actin (actin) in the cell extracts was assessed by Western blot analysis. In FIG. 11B, SKBR3 and MDAMB231 cells were maintained in low serum medium (0) or treated with 10 μM MDC (MDC) for 1.5 days. […] All cell cultures were then treated with +/−0.25 μM doxorubicin (Dox) for about 1 day and the cells were scored for programmed cell death as described in Example 13. […]
NIH3T3 cells were grown in Dulbecco's modified Eagle's medium containing 10% calf serum and 100 units/ml penicillin. […] Protein concentrations were determined using the Bio-Rad DC protein assay.
Cells were seeded in 6-well dishes and grown in complete medium for 2 days. […] The cultures were then incubated with fresh medium containing RA, EGF, and MDC and +/−0.2 μM doxorubicin for an additional 1.5 days and were fixed and stained with 4,6-diamidino-2-phenylindole (2 μg/ml) for viewing by fluorescence microscopy. […]

[6] = tested on: tissue transglutaminase (TG); assay: TG GTP-binding activity by photoaffinity labeling with [α-32P]GTP in SKBR3 cell lysates; conditions: SKBR3 cells, 5 μM RA or 100 ng/ml EGF for 2 days; FIG. 9A
Experimental: as §1
Photoaffinity labeling of TG was performed by incubating whole cell lysates with 5 μCi of [α-^32P]GTP in 50 mM Tris-HCl, pH 7.4, 2 mM EGTA, 1 mM DTT, 20% (w/v) glycerol, 100 mM NaCl, and 500 μM AMP-PNP for 10 minutes at room temperature. […]

B1: EGF: epidermal growth factor, a known mitogen and survival factor (protein, UniProt P01133 23-1207, looked up)
Pro-epidermal growth factor: PQHWSCPEGTLAGNGNSTCVGPAPFLIFSHGNSIFRIDTEGTNYEQLVVDAGVSVIMDFHYNEKRIYWVDLERQLLQRVFLNGSRQERVCNIEKNVSGMAINWINEEVIWSNQQEGIITVTDMKGNNSHILLSALKYPANVAVDPVERFIFWSSEVAGSLYRADLDGVGVKALLETSEKITAVSLDVLDKRLFWIQYNREGSNSLICSCDYDGGSVHISKHPTQHNLFAMSLFGDRIFYSTWKMKTIWIANKHTGKDMVRINLHSSFVPLGELKVVHPLAQPKAEDDTWEPEQKLCKLRKGNCSSTVCGQDLQSHLCMCAEGYALSRDRKYCEDVNECAFWNHGCTLGCKNTPGSYYCTCPVGFVLLPDGKRCHQLVSCPRNVSECSHDCVLTSEGPLCFCPEGSVLERDGKTCSGCSSPDNGGCSQLCVPLSPVSWECDCFPGYDLQLDEKSCAASGPQPFLLFANSQDIRHMHFDGTDYGTLLSQQMGMVYALDHDPVENKIYFAHTALKWIERANMDGSQRERLIEEGVDVPEGLAVDWIGRRFYWTDRGKSLIGRSDLNGKRSKIITKENISQPRGIAVHPMAKRLFWTDTGINPRIESSSLQGLGRLVIASSDLIWPSGITIDFLTDKLYWCDAKQSVIEMANLDGSKRRRLTQNDVGHPFAVAVFEDYVWFSDWAMPSVMRVNKRTGKDRVRLQGSMLKPSSLVVVHPLAKPGADPCLYQNGGCEHICKKRLGTAWCSCREGFMKASDGKTCLALDGHQLLAGGEVDLKNQVTPLDILSKTRVSEDNITESQHMLVAEIMVSDQDDCAPVGCSMYARCISEGEDATCQCLKGFAGDGKLCSDIDECEMGVPVCPPASSKCINTEGGYVCRCSEGYQGDGIHCLDIDECQLGEHSCGENASCTNTEGGYTCMCAGRLSEPGLICPDSTPPPHLREDDHHYSVRNSDSECPLSHDGYCLHDGVCMYIEALDKYACNCVVGYIGERCQYRDLKWWELRHAGHGQQQKVIVVAVCVVVLVMLLLLSLWGAHYYRTQKLLSKNPKNPYEESSRDVRSRRPADTEDGMSSCPQPWFVVIKEHQDLKNGGQPVAGEDGQAADGSMQPTSWRQEPQLCGMGTEQGCWIPVSSDKGSCPQVMERSFHMPSYGTQTLEGGVEKPHSLLSANPLWQQRALDPPHQMELTQ
modifications: Pro-epidermal growth factor
B1 was tested. Which “GTP-binding and enzymatic (transamidation) activity of TG” value [1] did it give?
Its value is “more effective than RA”.

What about the TG expression [2] of the same molecule?
The TG expression was “up-regulated TG expression”.

And the “growth of SKBR3 cells” value (SKBR3 cells [3])?
The value was “did not impede the growth”.

And the “constitutive level of TG expression or activation” value [4]?
Its value is “did not alter the constitutive level of TG expression or activation”.

And the “reduction in the rate of apoptosis” value (SKBR3 cells [5])?
Its value is 50%.

What about the “TG GTP-binding activity” value [6] of the same molecule?
The value was “increased GTP-binding”.
